According to IntAct's records for PubMed 31515488:

B1: Vacuolar-sorting protein SNF8 (Homo sapiens), Q96H20 (parent)
chain: MHRRGVGAGAIAKKKLAEAKYKERGTVLAEDQLAQMSKQLDMFKTNLEEFASKHKQEIRKNPEFRVQFQDMCATIGVDPLASGKGFWSEMLGVGDFYYELGVQIIEVCLALKHRNGGLITLEELHQQVLKGRGKFAQDVSQDDLIRAIKKLKALGTGFGIIPVGGTYLIQSVPAELNMDHTVVLQLAEKNGYVTVSEIKASLKWETERARQVLEHLLKEGLAWLDLQAPGEAHYWLPALFTDLYSQEITAEEAREALP
partner: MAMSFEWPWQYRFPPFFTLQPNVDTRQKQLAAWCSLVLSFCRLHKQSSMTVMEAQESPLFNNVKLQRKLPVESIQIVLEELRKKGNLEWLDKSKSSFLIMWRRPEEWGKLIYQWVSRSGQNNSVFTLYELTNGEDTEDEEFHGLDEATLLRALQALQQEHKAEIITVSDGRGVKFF
B2: Hyaluronan mediated motility receptor (Homo sapiens), O75330 (parent)
chain: MSFPKAPLKRFNDPSGCAPSPGAYDVKTLEVLKGPVSFQKSQRFKQQKESKQNLNVDKDTTLPASARKVKSSESKESQKNDKDLKILEKEIRVLLQERGAQDRRIQDLETELEKMEARLNAALREKTSLSANNATLEKQLIELTRTNELLKSKFSENGNQKNLRILSLELMKLRNKRETKMRGMMAKQEGMEMKLQVTQRSLEESQGKIAQLEGKLVSIEKEKIDEKSETEKLLEYIEEISCASDQVEKYKLDIAQLEENLKEKNDEILSLKQSLEENIVILSKQVEDLNVKCQLLEKEKEDHVNRNREHNENLNAEMQNLKQKFILEQQEREKLQQKELQIDSLLQQEKELSSSLHQKLCSFQEEMVKEKNLFEEELKQTLDELDKLQQKEEQAERLVKQLEEEAKSRAEELKLLEEKLKGKEAELEKSSAAHTQATLLLQEKYDSMVQSLEDVTAQFESYKALTASEIEDLKLENSSLQEKAAKAGKNAEDVQHQILATESSNQEYVRMLLDLQTKSALKETEIKEITVSFLQKITDLQNQLKQQEEDFRKQLEDEEGRKAEKENTTAELTEEINKWRLLYEELYNKTKPFQLQLDAFEVEKQALLNEHGAAQEQLNKIRDSYAKLLGHQNLKQKIKHVVKLKDENSQLKSEVSKLRCQLAKKKQSETKLQEELNKVLGIKHFDPSKAFHHESKENFALKTPLKEGNTNCYRAPMECQESWK
B3: Tripartite motif-containing protein 59 (Homo sapiens), Q8IWR1 (parent)
chain: MHNFEEELTCPICYSIFEDPRVLPCSHTFCRNCLENILQASGNFYIWRPLRIPLKCPNCRSITEIAPTGIESLPVNFALRAIIEKYQQEDHPDIVTCPEHYRQPLNVYCLLDKKLVCGHCLTIGQHHGHPIDDLQSAYLKEKDTPQKLLEQLTDTHWTDLTHLIEKLKEQKSHSEKMIQGDKEAVLQYFKELNDTLEQKKKSFLTALCDVGNLINQEYTPQIERMKEIREQQLELMALTISLQEESPLKFLEKVDDVRQHVQILKQRPLPEVQPVEIYPRVSKILKEEWSRTEIGQIKNVLIPKMKISPKRMSCSWPGKDEKEVEFLKILNIVVVTLISVILMSILFFNQHIITFLSEITLIWFSEASLSVYQSLSNSLHKVKNILCHIFYLLKEFVWKIVSH
partner: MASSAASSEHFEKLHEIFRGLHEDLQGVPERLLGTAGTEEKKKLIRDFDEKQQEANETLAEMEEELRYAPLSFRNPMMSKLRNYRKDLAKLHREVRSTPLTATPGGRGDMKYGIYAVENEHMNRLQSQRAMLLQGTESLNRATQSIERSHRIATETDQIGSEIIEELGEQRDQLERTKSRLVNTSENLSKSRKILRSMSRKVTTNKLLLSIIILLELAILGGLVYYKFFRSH
B4: E3 ubiquitin-protein ligase DZIP3 (Homo sapiens), Q86Y13 (parent)
chain: MDSLPDEFFVRHPAVEDQRKEETENKLEKSSGQLNKQENDIPTDLVPVNLLLEVKKLLNAINTLPKGVVPHIKKFLQEDFSFQTMQREVAANSQNGEEIVPALTLRFLITQLEAALRNIQAGNYTAHQINIGYYLTLLFLYGVALTERGKKEDYTEAENKFLVMKMMIQENEICENFMSLVYFGRGLLRCAQKRYNGGLLEFHKSLQEIGDKNDHWFDIDPTEDEDLPTTFKDLLNNFIKTTESNIMKQTICSYLDCERSCEADILKNTSYKGFFQLMCSKSCCVYFHKICWKKFKNLKYPGENDQSFSGKKCLKEGCTGDMVRMLQCDVPGIVKILFEVVRKDEYITIENLGASYRKLISLKITDTDIRPKISLKFNTKDEMPIFKLDYNYFYHLLHIIIISGTDIVRQIFDEAMPPPLLKKELLIHKNVLESYYNHLWTNHPLGGSWHLLYPPNKELPQSKQFDLCLLLALIKHLNVFPAPKKGWNMEPPSSDISKSADILRLCKYRDILLSEILMNGLTESQFNSIWKKVSDILLRLGMMQEDIDKVKENPIENISLDYHQLSVYLGIPVPEIIQRMLSCYQQGIALQSITGSQRIEIEELQNEEEELSPPLMEYNINVKSHPEIQFAEINKDGTSIPSESSTESLKDLQEVKSKQRKKKKTKNKKNKDSKEDQVPYVVEKEEQLRKEQANPHSVSRLIKDDASDVQEDSAMEDKFYSLDELHILDMIEQGSAGKVTTDYGETEKERLARQRQLYKLHYQCEDFKRQLRTVTFRWQENQMQIKKKDKIIASLNQQVAFGINKVSKLQRQIHAKDNEIKNLKEQLSMKRSQWEMEKHNLESTMKTYVSKLNAETSRALTAEVYFLQCRRDFGLLHLEQTEKECLNQLARVTHMAASNLESLQLKAAVDSWNAIVADVRNKIAFLRTQYNEQINKVKQGFALSTLPPVQLPPPPPSPEILMQQFLGRPLVKESFFRPILTVPQMPAVCPGVVSATGQPRAPLMTGIAWALPAPVGDAVPPSAGLRSDPSIMNWERITDRLKTAFPQQTRKELTDFLRKLKDAYGKSLSELTFDEIVCKISQFIDPKKSQSQGKSVSNVNCVSPSHSPSQPDAAQPPKPAWRPLTSQGPATWEGASNPDEEEEEEEPCVICHENLSPENLSVLPCAHKFHAQCIRPWLMQQGTCPTCRLHVLLPEEFPGHPSRQLPKI
B5: Notch homolog 2 N-terminal-like protein A (Homo sapiens), Q7Z3S9 (parent)
chain: MCVTYHNGTGYCKCPEGFLGEYCQHRDPCEKNRCQNGGTCVAQAMLGKATCRCASGFTGEDCQYSTSHPCFVSRPCLNGGTCHMLSRDTYECTCQVGFTGKECQWTDACLSHPCANGSTCTTVANQFSCKCLTGFTGQKCETDVNECDIPGHCQHGGTCLNLPGSYQCQCLQGFTGQYCDSLYVPCAPSPCVNGGTCRQTGDFTFECNCLPETVRRGTELWERDREVWNGKEHDEN
partner: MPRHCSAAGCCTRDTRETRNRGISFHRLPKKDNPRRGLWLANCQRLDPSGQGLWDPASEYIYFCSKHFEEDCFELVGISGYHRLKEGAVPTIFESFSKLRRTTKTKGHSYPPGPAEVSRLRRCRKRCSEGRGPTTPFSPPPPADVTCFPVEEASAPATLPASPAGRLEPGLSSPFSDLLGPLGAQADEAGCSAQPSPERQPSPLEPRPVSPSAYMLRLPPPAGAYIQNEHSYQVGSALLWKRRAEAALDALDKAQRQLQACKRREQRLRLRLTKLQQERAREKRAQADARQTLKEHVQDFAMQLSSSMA
B6: Calcium-binding and coiled-coil domain-containing protein 2 (Homo sapiens), Q13137 (parent)
chain: MEETIKDPPTSAVLLDHCHFSQVIFNSVEKFYIPGGDVTCHYTFTQHFIPRRKDWIGIFRVGWKTTREYYTFMWVTLPIDLNNKSAKQQEVQFKAYYLPKDDEYYQFCYVDEDGVVRGASIPFQFRPENEEDILVVTTQGEVEEIEQHNKELCKENQELKDSCISLQKQNSDMQAELQKKQEELETLQSINKKLELKVKEQKDYWETELLQLKEQNQKMSSENEKMGIRVDQLQAQLSTQEKEMEKLVQGDQDKTEQLEQLKKENDHLFLSLTEQRKDQKKLEQTVEQMKQNETTAMKKQQELMDENFDLSKRLSENEIICNALQRQKERLEGENDLLKRENSRLLSYMGLDFNSLPYQVPTSDEGGARQNPGLAYGNPYSGIQESSSPSPLSIKKCPICKADDICDHTLEQQQMQPLCFNCPICDKIFPATEKQIFEDHVFCHSL
partner: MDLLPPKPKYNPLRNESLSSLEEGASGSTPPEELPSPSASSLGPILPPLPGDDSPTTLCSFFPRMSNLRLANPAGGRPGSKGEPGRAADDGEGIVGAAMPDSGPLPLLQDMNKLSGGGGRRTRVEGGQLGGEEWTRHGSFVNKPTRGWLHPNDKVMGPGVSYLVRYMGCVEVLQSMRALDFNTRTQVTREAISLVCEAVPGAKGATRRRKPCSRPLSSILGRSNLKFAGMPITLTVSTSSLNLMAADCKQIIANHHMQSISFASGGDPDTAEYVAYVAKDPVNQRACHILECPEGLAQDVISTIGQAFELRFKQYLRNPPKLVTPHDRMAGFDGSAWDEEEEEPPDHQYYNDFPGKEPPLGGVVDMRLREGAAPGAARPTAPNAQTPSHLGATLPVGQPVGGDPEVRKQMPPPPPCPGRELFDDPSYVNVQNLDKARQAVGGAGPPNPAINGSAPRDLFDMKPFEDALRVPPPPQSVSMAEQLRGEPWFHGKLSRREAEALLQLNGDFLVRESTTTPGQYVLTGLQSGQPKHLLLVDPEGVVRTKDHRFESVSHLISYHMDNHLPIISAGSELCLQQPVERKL
B7: Inactive peptidyl-prolyl cis-trans isomerase FKBP6 (Homo sapiens), O75344 (parent)
chain: MGGSALNQGVLEGDDAPGQSLYERLSQRMLDISGDRGVLKDVIREGAGDLVAPDASVLVKYSGYLEHMDRPFDSNYFRKTPRLMKLGEDITLWGMELGLLSMRRGELARFLFKPNYAYGTLGCPPLIPPNTTVLFEIELLDFLDCAESDKFCALSAEQQDQFPLQKVLKVAATEREFGNYLFRQNRFYDAKVRYKRALLLLRRRSAPPEEQHLVEAAKLPVLLNLSFTYLKLDRPTIALCYGEQALIIDQKNAKALFRCGQACLLLTEYQKARDFLVRAQKEQPFNHDINNELKKLASCYRDYVDKEKEMWHRMFAPCGDGSTAGES
partner: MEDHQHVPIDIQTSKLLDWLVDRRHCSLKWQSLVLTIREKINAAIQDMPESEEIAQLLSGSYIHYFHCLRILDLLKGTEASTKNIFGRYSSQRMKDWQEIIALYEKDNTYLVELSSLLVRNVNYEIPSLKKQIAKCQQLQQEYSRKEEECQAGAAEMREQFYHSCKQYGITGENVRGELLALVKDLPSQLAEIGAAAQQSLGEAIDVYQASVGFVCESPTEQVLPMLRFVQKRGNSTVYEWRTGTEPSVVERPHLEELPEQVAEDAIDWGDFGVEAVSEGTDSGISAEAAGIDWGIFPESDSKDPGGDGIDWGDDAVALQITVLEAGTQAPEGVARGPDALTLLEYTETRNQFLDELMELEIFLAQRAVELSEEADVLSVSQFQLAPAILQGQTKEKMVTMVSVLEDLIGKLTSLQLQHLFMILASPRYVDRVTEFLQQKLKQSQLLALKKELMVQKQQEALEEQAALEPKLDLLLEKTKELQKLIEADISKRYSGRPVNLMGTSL
B8: Putative RNA-binding protein Luc7-like 2 (Homo sapiens), Q9Y383 (parent)
chain: MSAQAQMRAMLDQLMGTSRDGDTTRQRIKFSDDRVCKSHLLNCCPHDVLSGTRMDLGECLKVHDLALRADYEIASKEQDFFFELDAMDHLQSFIADCDRRTEVAKKRLAETQEEISAEVAAKAERVHELNEEIGKLLAKVEQLGAEGNVEESQKVMDEVEKARAKKREAEEVYRNSMPASSFQQQKLRVCEVCSAYLGLHDNDRRLADHFGGKLHLGFIEIREKLEELKRVVAEKQEKRNQERLKRREEREREEREKLRRSRSHSKNPKRSRSREHRRHRSRSMSRERKRRTRSKSREKRHRHRSRSSSRSRSRSHQRSRHSSRDRSRERSKRRSSKERFRDQDLASCDRDRSSRDRSPRDRDRKDKKRSYESANGRSEDRRSSEEREAGEI
partner: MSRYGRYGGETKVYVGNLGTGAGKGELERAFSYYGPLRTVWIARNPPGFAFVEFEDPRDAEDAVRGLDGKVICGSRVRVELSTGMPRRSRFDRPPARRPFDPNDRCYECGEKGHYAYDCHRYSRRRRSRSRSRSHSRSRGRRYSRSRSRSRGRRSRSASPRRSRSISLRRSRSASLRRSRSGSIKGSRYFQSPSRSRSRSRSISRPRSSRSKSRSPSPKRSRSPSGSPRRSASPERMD

Variants of: B1
Settings: with vps25_human VPS25, Q9BRG1

Row | Variant | effect of a mutation on the interaction
1 | Q185R | with no effect

Variants of: B2
Settings: with morn4_human MORN4, Q8NDC4
morn4_human MORN4, Q8NDC4, sequence (Q8NDC4 whole entry): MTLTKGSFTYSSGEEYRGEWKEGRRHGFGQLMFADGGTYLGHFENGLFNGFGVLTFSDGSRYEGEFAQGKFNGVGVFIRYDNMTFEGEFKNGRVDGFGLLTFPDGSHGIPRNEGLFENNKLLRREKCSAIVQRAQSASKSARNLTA

Row | Variant | effect of a mutation on the interaction
2 | V368A | with no effect
3 | S468G | with no effect

Variants of: B3
Settings: with vti1b_human VTI1B

Row | Variant | effect of a mutation on the interaction
4 | I277V | with no effect

Variants of: B4
Settings: with ub2e2_human UBE2E2, Q96LR5
ub2e2_human UBE2E2, Q96LR5, sequence (Q96LR5 whole entry): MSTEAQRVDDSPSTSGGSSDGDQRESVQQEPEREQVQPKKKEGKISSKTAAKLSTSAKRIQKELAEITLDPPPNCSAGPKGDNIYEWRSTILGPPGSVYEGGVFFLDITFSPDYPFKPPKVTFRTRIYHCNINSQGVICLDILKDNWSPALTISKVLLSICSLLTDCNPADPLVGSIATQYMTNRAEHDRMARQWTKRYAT

Row | Variant | effect of a mutation on the interaction
5 | F767L | with no effect

Variants of: B4
Settings: with zch10_human ZCCHC10, Q8TBK6
zch10_human ZCCHC10, Q8TBK6, sequence (Q8TBK6 whole entry): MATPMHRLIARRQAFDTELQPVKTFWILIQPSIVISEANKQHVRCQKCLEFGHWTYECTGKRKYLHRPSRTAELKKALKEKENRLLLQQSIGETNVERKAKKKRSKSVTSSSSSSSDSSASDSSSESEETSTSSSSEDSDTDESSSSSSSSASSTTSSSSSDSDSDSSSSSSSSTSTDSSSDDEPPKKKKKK

Row | Variant | effect of a mutation on the interaction
6 | F767L | with no effect

Variants of: B5
Settings: with thap7_human THAP7, Q9BT49

Row | Variant | effect of a mutation on the interaction
7 | R74Q | with no effect
8 | A115T | with no effect

Variants of: B6
Settings: with shc1_human SHC1, P29353

Row | Variant | effect of a mutation on the interaction
9 | E222K | with no effect

Variants of: B7
Settings: with ck5p3_human CDK5RAP3, Q96JB5

Row | Variant | effect of a mutation on the interaction
10 | R175Q | with no effect
11 | H287N | with no effect

Variants of: B8
Settings: with srsf7_human SRSF7, Q16629

Row | Variant | effect of a mutation on the interaction
12 | K368Q | with no effect
